According to patent publication US20250197490A1 (HBM ALPHA THERAPEUTICS, published 2025):

T1: corticotropin-releasing hormone (CRH) peptide (human and mouse, UniProt P01143 145-185 (rat entry), not fully specified)
T1 peptide: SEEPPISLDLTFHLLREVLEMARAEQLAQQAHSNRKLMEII

T2: biotinylated CRH (human and mouse, UniProt P01143 145-185 (rat entry), not fully specified; biotin; which end is not stated for the result (NT-biotin and CT-biotin forms were used))
T2 construct: also called biotin-CRH; CRH (NT biotin)
T2 peptide: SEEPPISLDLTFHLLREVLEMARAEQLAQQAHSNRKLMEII

T3: human UCN1 peptide, biotinylated (human, UniProt P55089 83-122, biotin at N- or C-terminus)
T3 construct: also called hUCN1 (NT Biotin); hUCN1 (CT Biotin)
T3 peptide (looked up): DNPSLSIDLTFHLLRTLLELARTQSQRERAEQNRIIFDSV

T4: N-Terminal CRH peptide (N-terminal region plus central region, CT biotin) (human and mouse, C-terminal K-Biotin)
T4 construct: also called N-Ter-CRH
T4 peptide: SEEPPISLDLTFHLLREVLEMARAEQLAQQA

T5: human UCN2 peptide, biotinylated (human, UniProt Q96RP3 72-109, limits assumed, biotin at N- or C-terminus)
T5 construct: also called hUCN2 (NT Biotin); hUCN2 (CT Biotin)
T5 peptide (looked up): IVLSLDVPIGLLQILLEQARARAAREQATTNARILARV

T6: human UCN3 peptide, biotinylated (human, UniProt Q969E3 120-157, biotin at N- or C-terminus)
T6 construct: also called hUCN3 (NT Biotin); hUCN3 (CT Biotin)
T6 peptide (looked up): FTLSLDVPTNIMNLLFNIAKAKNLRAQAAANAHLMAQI

T7: CRH (Central Region, NT Biotin) (N-terminal Biotin-K; C-terminal NH2)
T7 construct: also called Central CRH
T7 peptide: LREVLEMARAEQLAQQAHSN

T8: CRH (Central Region, CT Biotin) (C-terminal K-Biotin)
T8 construct: also called Central CRH
T8 peptide: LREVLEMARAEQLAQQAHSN

T9: CRH (C-Terminal Region, NT Biotin) (N-terminal Biotin-K; C-terminal NH2)
T9 construct: central region plus C-terminal region of CRH; also called C-Terminal CRH; C-Ter-CRH
T9 peptide: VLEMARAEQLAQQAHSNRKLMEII


Experiments:
[1] = target: T1, corticotropin-releasing hormone (CRH) …; assay: cell-based or functional assay
[2] = target: T2, biotinylated CRH; assay: ELISA, CRH (NT biotin)
Protocol: (§1) Streptavidin (Thermo, Cat: 21125) was diluted in PBS to a concentration of 2 μg/ml. 100 μl of diluted streptavidin was added per well to ELISA microplates, and the plates were incubated overnight at 4° C. […] Subsequently, plates were washed and incubated with HRP-conjugated goat anti-human IgG (H+L) antibody (Jackson, Cat: 109-035-088) at 37° C. for 1 hour. 100 μL of 3,3′,5,5′-tetramethylbenzidine (TMB) substrate (Biopanda, Cat: TMB-S-003) was added, and the plates were incubated at room temperature for 15 minutes. 100 μL of ELISA stopping solution (Solarbio, Cat #: C1058) was added to terminate the reaction, and the optical density at 450 nm (OD450 nm) was determined by an ELISA plate reader (Molecular Devices, Spectra max 384 plus).

[3] = target: T2, biotinylated CRH; assay: ELISA, CRH (CT biotin)
Protocol: as §1

[4] = target: T3, human UCN1 peptide, biotinylated; assay: ELISA, hUCN1 (NT biotin)
Protocol: as §1

[5] = target: T3, human UCN1 peptide, biotinylated; assay: ELISA, hUCN1 (CT biotin)
Protocol: as §1

[6] = target: T4, N-Terminal CRH peptide (N-terminal …); assay: ELISA, N-Ter-CRH (CT-biotin) on streptavidin
Protocol: as §1

[7] = target: T5, human UCN2 peptide, biotinylated; assay: ELISA, hUCN2 (NT biotin) and (CT biotin)
Protocol: (§2) Streptavidin (Thermo, Cat: 21125) was diluted in PBS with a concentration of 2 μg/mL. 100 μL of diluted streptavidin was added per well to ELISA microplates, and the plates were incubated overnight at 4° C. Plates were blocked with ELISA blocking solution (containing 2% w/v BSA, 0.05% (v/v) Tween-20, pH 7.4 PBS buffer) at 37° C. for 1 hour, and then incubated with either 1 μg/mL hUCN1 (NT Biotin), hUCN1 (CT Biotin), hUCN2 (NT Biotin), hUCN2 (CT Biotin), hUCN3 (NT Biotin), or hUCN3 (CT Biotin) for 1 hour at 37° C. […] Plates were subsequently washed and incubated with HRP-conjugated goat anti-human IgG (H+L) antibody (Jackson, Cat: 109-035-088) at 37° C. for 1 hour. 100 μl of TMB Substrate (Biopanda, Cat: TMB-S-003) was added, and the plates were incubated at room temperature for 15 minutes. 100 μL of ELISA stopping solution (Solarbio, Cat #: C1058) was then added to terminate the reaction, and the OD450 nm was determined by an ELISA plate reader (Molecular Devices, Spectra max 384 plus).

[8] = target: T6, human UCN3 peptide, biotinylated; assay: ELISA, hUCN3 (NT biotin) and (CT biotin)
Protocol: as §2

[9] = target: T7, CRH (Central Region, NT Biotin); assay: ELISA, CRH central region peptide (NT biotin)
Protocol: as §1

[10] = target: T8, CRH (Central Region, CT Biotin); assay: ELISA, CRH central region peptide (CT biotin)
Protocol: as §1

[11] = target: T9, CRH (C-Terminal Region, NT Biotin); assay: ELISA, CRH C-terminal region peptide (NT biotin)
Protocol: as §1

[12] = target: T1, corticotropin-releasing hormone (CRH) …; assay: cell-based or functional assay
[13] = target: T3, human UCN1 peptide, biotinylated; assay: ELISA, hUCN1 (NT biotin) and (CT biotin), mAb at 100 and 10 nM
Protocol: as §2

[14] = target: T2, biotinylated CRH; assay: ELISA, CRH (NT biotin)

Row | Binder | unlabelled nM value (Table 5 matrix; likely hCRHR1-Luc IC50 as in Tables 6-8) [1] | EC50 (read off the curve) [2] | EC50 (read off the curve) [3] | EC50 (read off the curve) [4] | EC50 (read off the curve) [5] | EC50 [6] | binding result [7] | binding result [8] | binding result [9] | binding result [10] | binding result [11] | hCRHR1-Luc 0.5 nM CRH IC50 [12] | binding result [13] | binding result [14]
1 | PR302064 (antibody, human IgG1, kappa, V domains shown) VH: EMQLVESGGGLVKPGGSLRLSCAASGFTFSNYWMNWVRQAPGKGLEWVAEIRLKSNNYATHYAESVKGRFTISRDDSKSTVYLQMNSLKTEDTAVYYCTVGTLVYWGQGTLVTVSS VL: DIVLTQSPDSLAVSLGERATINCRASQSVSTSTYNYMHWFQQKPGQPPKLLIKFASNLESGVPDRFSGSGSGTDFTLTISSLQAEDTAVYYCQHSWEIPYTFGQGTKLEIKR | 0.531 nM | ~0.03 nM | ~0.03 nM | ~0.1 nM | ~0.2 nM | 0.022 nM | no binding (tested: 100 nM) | no binding (tested: 100 nM) | no binding (tested: 100 nM) | no binding (tested: 100 nM) | no binding (tested: 100 nM) |  |  | 
2 | PR302309-11 (antibody, human IgG1, kappa, V domains shown) VH: QIQLVQSGSELKKPGASVKVSCKASGYTFTNYGMNWVRQAPGQGLEWMGWINTYTGEPIYTDDFKGRFVFSLDTSVSTAYLQISSLKAEDTAVYYCSRSTMITTGGVFAYWGQGTLVTVSS VL: DIVMTQTPLSSPVTLGQPASISCRSSQTIVHSDGNTYLEWLQQRPGQPPRLLIYKVSNRFSGVPDRFSGSGAGTDFTLKISRVEAEDVGVYYCFQGSHVPWTFGGGTKVEIKR |  | ~0.03 nM | ~0.03 nM | ~0.07 nM | ~0.4 nM | 0.028 nM | no binding (tested: 100 nM) | no binding (tested: 100 nM) | no binding (tested: 100 nM) | no binding (tested: 100 nM) | no binding (tested: 100 nM) | 2.12 nM |  | 
3 | PR302309-18 (antibody, human IgG1, kappa, V domains shown) VH: QVQLVQSGAEVKKPGASVKVSCKASGYTFTNYGMNWVRQAPGQRLEWMGWINTYTGEPIYTDDFKGRVTITRDTSASTAYMELSSLRSEDTAVYYCARSTMITTGGVFAYWGQGTLVTVSS VL: DVVMTQSPLSLPVTLGQPASISCRSSQTIVHSDGNTYLEWYQQRPGQSPRLLIYKVSNRFSGVPDRFSGSGSGTDFTLKISRVEAEDLGVYYCFQGSHVPWTFGGGTKVEIKR |  | ~0.03 nM | ~0.03 nM | ~0.1 nM |  | 0.028 nM | no binding (tested: 100 nM) | no binding (tested: 100 nM) | no binding (tested: 100 nM) | no binding (tested: 100 nM) | no binding (tested: 100 nM) | 1.73 nM |  | 
4 | PR302341-34 (antibody, human IgG1, kappa, V domains shown) VH: QVQLVQSGAEVKKPGASVKVSCKASGYTFTDYFMKWVRQAPGQGLEWMGVINPNQGDIFYNQKFKGRVTMTVDKSISTAYMELSRLRSDDTAVYYCARGTDRALFAYWGQGTLVTVSS VL: DVVMTQSPLSLPVTLGQPASISCRSGQSIVHSDANTYLEWYQQRPGQSPRLLIYKVSNRFSGVPDRFSGSGSGTDFTLKISRVEAEDLGVYYCFQGSHIPWTFGGGTKVEIKR |  | ~0.03 nM | ~0.03 nM | ~0.02 nM | ~0.03 nM |  | no binding (tested: 100 nM) |  | no binding (tested: 100 nM) | no binding (tested: 100 nM) | no binding (tested: 100 nM) |  |  | 
5 | PR302341-48 (antibody, human IgG1, kappa, V domains shown) VH: QVQLVQSGAEVKKPGASVKVSCKASGYTFTDYFMKWVRQAPGQGLEWMGVINPNQGDIFYNQKFKGRVTMTVDKSTSTAYMELSSLRSEDTAVYYCARGTDRALFAYWGQGTLVTVSS VL: DVVMTQTPLSSPVTLGQPASISCRSGQSIVHSDANTYLEWYQQRPGQPPRLLIYKVSNRFSGVPDRFSGSGAGTDFTLKISRVEAEDLGVYYCFQGSHIPWTFGGGTKVEIKR |  |  |  |  |  |  | no binding (tested: 100 nM) |  |  |  |  |  | binds | 
6 | PR302341-55 (antibody, human IgG1, kappa, V domains shown) VH: QVQLVQSGAEVKKPGASVKVSCKASGYTFTDYFMKWVRQAPGQRLEWMGVINPNNADIFYNQKFKGRVTITRDTSASTAYMELSSLRSEDTAVYYCARGTDRALFAYWGQGTLVTVSS VL: DVVMTQSPLSLPVTLGQPASISCRSGQSIVHSDGNTYLEWYQQRPGQSPRLLIYKVSNRFSGVPDRFSGSGSGTDFTLKISRVEAEDLGVYYCFQGSHIPWTFGGGTKVEIKR |  |  |  |  |  |  | no binding (tested: 100 nM) |  |  |  |  |  | binds | 
7 | PR302341-60 (antibody, human IgG1, kappa, V domains shown) VH: QVQLVQSGAEVKKPGASVKVSCKASGYTFTDYFMKWVRQAPGQRLEWMGVINPNQGDIFYNQKFKGRVTITRDTSASTAYMELSSLRSEDTAVYYCARGTDRALFAYWGQGTLVTVSS VL: DVVMTQSPLSLPVTLGQPASISCRSGQSIVHSDANTYLEWYQQRPGQSPRLLIYKVSNRFSGVPDRFSGSGSGTDFTLKISRVEAEDLGVYYCFQGSHIPWTFGGGTKVEIKR |  |  |  |  |  |  | no binding (tested: 100 nM) |  |  |  |  |  | binds | 
8 | PR302341-28 (antibody, human IgG1, kappa, V domains shown) VH: QVQLVQSGAEVKKPGASVKVSCKASGYTFTDYFMKWVRQAPGQGLEWMGVINPNQGDIFYNQKFKGRVTMTVDKSISTAYMELSRLRSDDTAVYYCARGTDRALFAYWGQGTLVTVSS VL: DVVMTQSPLSLPVTLGQPASISCRSGQSIVHSDGNTYLEWYQQRPGQSPRLLIYKVSNRFSGVPDRFSGSGSGTDFTLKISRVEAEDLGVYYCFQGSHIPWTFGGGTKVEIKR |  |  |  |  |  |  | no binding (tested: 100 nM) |  |  |  |  |  | binds | 
9 | PR301790 (antibody, human IgG1, kappa, V domains shown) VH: EMKLEESGGGLVQPGGSMKLSCVASGFTFSNYWMNWVRQSPEKGLEWVAEIRLKSNNYATHYAESVKGRFTISRDDSKSSVYLQMNNLRAEDTGIYYCTIGTLVYWGQGTLVTVSA VL: DIVLTQSPASLAVSLGQRATISCRASQSVSTSSYNYMHWYQQKPGQPPKLLIKFASNLESGVPARFSGSGSGTDFTLNIHPVEEEDTATFYCQHSWEIPYTFGGGTKLEIKR |  |  |  |  |  |  |  |  |  |  |  |  |  | binds
